According to article PMC12650235, “Optimized Aptamer-Conjugated Gold Nanoparticles for Specific Detection of GII.4 Human Norovirus in Feces”:

What was measured:
[1] = system: GII.4 HuNoV VLP (VP1 capsid) (Human norovirus GII.4 Hu/GII.4/DBM15-156/2015); assay: ELASA; details: BLI: PBST + 5 mM Mg2+, biotin-aptamer 100 nM, VLP 18.75-150 nM, Octet RED96; ELASA: VLP 3 ug/mL, aptamer 1 uM; CD: 10 mM Tris-HCl pH 7.4, 1.0 mM NaCl, 0.05 mM …
[2] = system: GII.4 HuNoV VLP (VP1 capsid) (Human norovirus GII.4 Hu/GII.4/DBM15-156/2015); assay: BLI; details: BLI: PBST + 5 mM Mg2+, biotin-aptamer 100 nM, VLP 18.75-150 nM, Octet RED96, ELASA: VLP 3 ug/mL, aptamer 1 uM, CD: 10 mM Tris-HCl pH 7.4, 1.0 mM NaCl, 0.05 mM …
GII.2 HuNoV VLP = GII.2 HuNoV VLP (Human norovirus GII.2 Env/CHN/2016, UniProt A0A291L9K1 1-542); assay: AuNP colorimetric competition; A620/A520 < 0.4; BLI: PBST + 5 mM Mg2+, biotin-aptamer 100 nM, VLP 18.75-150 nM, Octet RED96; ELASA: VLP 3 ug/mL, aptamer 1 uM; CD: 10 mM Tris-HCl pH 7.4, 1.0 mM NaCl, 0.05 mM MgCl2, room temperature; details: protein: recombinant; tags: His; chain copies: 180; label: biotin (5' in the colorimetric assay); stem-loops
GII.17 HuNoV VLP = GII.17 HuNoV VLP (Human norovirus GII.17 …, UniProt A0A0E3X5I8 1-540); assay: as above; details: protein: recombinant; chain copies: 180; label: biotin (5' in the colorimetric assay); stem-loops

“AACACGACCCACGTACCTGTGTGAGACACAGACCACCAAGGTGGGC [AP4-11-2 (C22T)]” gave a binding signal (% of AP4-11 (46% loss)) [1] of 54 and a Kd ([2]; 5 mM Mg2+, poor fit R2=0.86) of 4.62 nM.

With “AACACGACCCACGTACCTGTGCGAGACACAGACCACCAAGGTGGGC [AP4-11]” the Kd [2] was 2.28 nM.

B1: AP4-11 (structured_DNA)
DNA: AACACGACCCACGTACCTGTGCGAGACACAGACCACCAAGGTGGGC
B1: no binding (GII.2 HuNoV VLP); no binding (GII.17 HuNoV VLP).
